The source of these data is the supplement of paper PMC7877785.

± gives the uncertainty stated by the source.

The series in a line: self-splicing fitness, log relative to wild type (ln ratio); higher = more splicing; Tetrahymena group I intron in knt gene, E. coli kanamycin selection, DiMSum; sequences stand for … in CUCUCU…GGAGGGAAAAGUUAUCAGGCAUGCACCUGGUAGCUAGUCUUUAAACCAAUAGAUUGCAUCGGUUUAAAAGGCAAGACCGUCAAAUUGCGGGAAAGGGGUCAACAGCCGUUCAGUACCAAGUCUCAGGGGAAACUUUGAGAUGGCCUUGCAAAGGGUAUGGUAAUAAGCUGACGGACAUGGUCCUAACCACGCAGCCAAGUCCUAAGUCAACAGAUCUUCUGUUGAUAUGGAUGCAGUUCACAGACUAAAUGUCGGUCGGGGAAGAUGUAUUCUUCUCAUAAGAUAUAGUCGGACCUCUCCUUAAUGGGAGCUAGCGGAUGAAGUGAUGCAACACUGGAGCCGCUGGGAACUAAUUUGUAUGCGAAAGUAUAUUGAUUAGUUUUGGAGUACUCGUGGUCG
The method in brief: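 Six replicate transformations of E. coli BL21(DE3) with a pET-22b(+) library were grown overnight at 37°C or 30°C. The library randomised all eight P1ex-region intron nucleotides, the intron lying in the knt kanamycin-resistance gene, and plates were LB agar with or without 25 μg/mL kanamycin plus 100 μg/mL carbenicillin, 50 μM IPTG and 0.2% rhamnose. Pooled colonies were amplicon-sequenced on an Illumina HiSeq 2500, and fitness is the DiMSum error-weighted combination of wild-type-normalised replicate fold changes, kanamycin versus none.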

As for CCGCAGCAAUAUUACGUGUU, the “self-splicing fitness (ln)” value was -3.84 ± 0.14 (30 °C) and -3.1 ± 0.21 (37 °C).

As to UUACAGCAAUAUUACGCUGG, the “self-splicing fitness (ln)” value by setting is: (30 °C) -4.24 ± 0.32; (37 °C) -2.08 ± 0.23.

Turning to GCCCAGCAAUAUUACGCCCU, the “self-splicing fitness (ln)” value is, setting by setting: (30 °C) -0.933 ± 0.12; (37 °C) -0.685 ± 0.16.

In the case of GGGUAGCAAUAUUACGCUUA, the “self-splicing fitness (ln)” value was -0.435 ± 0.15 (30 °C) and -0.957 ± 0.13 (37 °C).

For the sequence GCCAAGCAAUAUUACGUUCC, the “self-splicing fitness (ln)” value reads like this: (30 °C) -0.712 ± 0.1; (37 °C) -0.674 ± 0.16.

For ACGUAGCAAUAUUACGCGAG, the “self-splicing fitness (ln)” value (30 °C) was -3.43 ± 0.19 and the “self-splicing fitness (ln)” value (37 °C) was -0.232 ± 0.11.

In the case of AGGUAGCAAUAUUACGAAUU, the “self-splicing fitness (ln)” value (30 °C) is -1.85 ± 0.017 and the “self-splicing fitness (ln)” value (37 °C) is -0.996 ± 0.035.

In the case of GACAAGCAAUAUUACGGUCG, the “self-splicing fitness (ln)” value (30 °C) is -1.22 ± 0.076 and the “self-splicing fitness (ln)” value (37 °C) is -0.0208 ± 0.09.

Consider GAAUAGCAAUAUUACGCGCA, for which the “self-splicing fitness (ln)” value (30 °C) is -0.334 ± 0.066 and the “self-splicing fitness (ln)” value (37 °C) is -0.494 ± 0.074.

For GCGAAGCAAUAUUACGUGAC, the “self-splicing fitness (ln)” value (30 °C) is -1.51 ± 0.28 and the “self-splicing fitness (ln)” value (37 °C) is -2.05 ± 0.29.

AAAGAGCAAUAUUACGCUUA: the “self-splicing fitness (ln)” value was -2.74 ± 0.31 (30 °C) and -3.02 ± 0.23 (37 °C).

With GCUGAGCAAUAUUACGCAUG, the “self-splicing fitness (ln)” value runs as follows: (30 °C) -2.68 ± 0.13; (37 °C) -1.92 ± 0.17.

Take ACGGAGCAAUAUUACGCAAC: the “self-splicing fitness (ln)” value (37 °C) is -2.4 ± 0.35.

GUCUAGCAAUAUUACGGUAC: the “self-splicing fitness (ln)” value reads like this: (30 °C) -0.985 ± 0.14; (37 °C) -0.625 ± 0.17.

Take GUAUAGCAAUAUUACGGCCA: the “self-splicing fitness (ln)” value (30 °C) was -0.388 ± 0.23 and the “self-splicing fitness (ln)” value (37 °C) was 0.0249 ± 0.18.

In the case of GAAAAGCAAUAUUACGCUGA, the “self-splicing fitness (ln)” value was -1.91 ± 0.24 (30 °C) and -1.65 ± 0.21 (37 °C).

With GGACAGCAAUAUUACGGCUA, the “self-splicing fitness (ln)” value was -0.452 ± 0.13 (30 °C) and -0.278 ± 0.12 (37 °C).

On to AGAGAGCAAUAUUACGUAUC, for which the “self-splicing fitness (ln)” value (37 °C) is -2.03 ± 0.17.

Regarding UGAUAGCAAUAUUACGCUGG, the “self-splicing fitness (ln)” value is -1.15 ± 0.11 (30 °C) and -0.645 ± 0.12 (37 °C).

Regarding GUCAAGCAAUAUUACGGUCG, the “self-splicing fitness (ln)” value is, setting by setting: (30 °C) -3.23 ± 0.14; (37 °C) -1.26 ± 0.13.

With GCGUAGCAAUAUUACGCUGU, the “self-splicing fitness (ln)” value (30 °C) is -3.16 ± 0.28.

In the case of UACGAGCAAUAUUACGGCUG, the “self-splicing fitness (ln)” value (30 °C) was -0.628 ± 0.077 and the “self-splicing fitness (ln)” value (37 °C) is -0.0702 ± 0.1.

AUAAAGCAAUAUUACGAUAA: the “self-splicing fitness (ln)” value by setting is: (30 °C) -0.405 ± 0.079; (37 °C) -0.094 ± 0.094.

In the case of UCUGAGCAAUAUUACGGCCG, the “self-splicing fitness (ln)” value (30 °C) was -2.7 ± 0.37.

Consider GGAUAGCAAUAUUACGUCUU, for which the “self-splicing fitness (ln)” value reads like this: (30 °C) -0.966 ± 0.096; (37 °C) 0.126 ± 0.11.

In the case of AGUAAGCAAUAUUACGACAG, the “self-splicing fitness (ln)” value is -2.95 ± 0.2 (30 °C) and -1.94 ± 0.22 (37 °C).

Take GAGUAGCAAUAUUACGAGGA: under “37 °C”, the “self-splicing fitness (ln)” value was -1.81 ± 0.4.

For GGGUAGCAAUAUUACGGCUU, the “self-splicing fitness (ln)” value (30 °C) is -0.41 ± 0.11 and the “self-splicing fitness (ln)” value (37 °C) is 0.232 ± 0.12.

On to GUAUAGCAAUAUUACGGGUG, for which the “self-splicing fitness (ln)” value (30 °C) is -3.76 ± 0.16 and the “self-splicing fitness (ln)” value (37 °C) was -2.86 ± 0.22.

Take UUAUAGCAAUAUUACGGCAU: the “self-splicing fitness (ln)” value runs as follows: (30 °C) -2.47 ± 0.18; (37 °C) -2.3 ± 0.25.

As for CGAUAGCAAUAUUACGUACA, the “self-splicing fitness (ln)” value is, setting by setting: (30 °C) -1.98 ± 0.13; (37 °C) -0.0364 ± 0.14.

CUAAAGCAAUAUUACGCCAU: the “self-splicing fitness (ln)” value by setting is: (30 °C) -3.34 ± 0.33; (37 °C) -1.36 ± 0.27.

With ACAAAGCAAUAUUACGAGAC, the “self-splicing fitness (ln)” value was -3.61 ± 0.21 (30 °C) and -2.57 ± 0.2 (37 °C).

On to GGCAAGCAAUAUUACGUCUU, for which the “self-splicing fitness (ln)” value (30 °C) was -0.676 ± 0.066 and the “self-splicing fitness (ln)” value (37 °C) is -0.385 ± 0.071.

As to CCAUAGCAAUAUUACGGCAA, the “self-splicing fitness (ln)” value runs as follows: (30 °C) -3.37 ± 0.28; (37 °C) -2.9 ± 0.3.
